{"source": "patent US20150315556", "proteins": {"B1": {"name": "CCR1 rationally-designed meganuclease (I-CreI derivative) (protein)", "chain": "MNTKYNKEFLLYLAGFVDGDGSIKAQIRPRQNYKFKHELELEFQVTQKTQRRWFLDKLVDEIGVGYVYDRGSVSDYILSEIKPLHNFLTQLQPFLKLKQKQANLVLKIIWRLPSAKESPDKFLEVCTWVDQIAALNDSKTRKTTSETVRAVLDSLSEKKKSSPHHHHHH"}, "B2": {"name": "MYD1 rationally-designed meganuclease (I-CreI derivative) (protein)", "chain": "B1 chain with K24I, N32S, E42A, Y66K, Y68R, I77E"}, "B3": {"name": "HSV1 rationally-designed meganuclease (I-CreI derivative) (protein)", "chain": "B1 chain with K24I, R28K, N32S, Y33C, E40R, E42Q, Y68R"}}, "key": {"[1]": {"target": "T1, CCR2 rationally-designed meganuclease (I-CreI derivative)", "T1 chain": "B1 chain with R28K, R30E, Y33R, E38R, E42A"}, "[2]": {"target": "T2, MYD2 rationally-designed meganuclease (I-CreI derivative)", "T2 chain": "B1 chain with K24I, Q26A, R30E, N32S, E38R, E42R, Y68R, I77Q"}, "[3]": {"target": "T3, HSV2 rationally-designed meganuclease (I-CreI derivative)", "T3 chain": "B1 chain with K24I, N32C, Y33R, E42R, Y68R"}}, "note": "Substitutions are numbered along the chain they refer to.", "data": [{"protein": "B1", "values": [{"measurement": "cleavage of a linearized DNA substrate containing the intended non-palindromic recognition sequence by the 1:1 mixture", "setting": "[1]", "value": "each rationally-designed meganuclease heterodimer cleaves its intended DNA site"}]}, {"protein": "B2", "values": [{"measurement": "cleavage of a linearized DNA substrate containing the intended non-palindromic recognition sequence by the 1:1 mixture", "setting": "[2]", "value": "each rationally-designed meganuclease heterodimer cleaves its intended DNA site"}]}, {"protein": "B3", "values": [{"measurement": "cleavage of a linearized DNA substrate containing the intended non-palindromic recognition sequence by the 1:1 mixture", "setting": "[3]", "value": "each rationally-designed meganuclease heterodimer cleaves its intended DNA site"}]}]}
